The values below come from paper PMC13403136.

Series [1] deals with T1, AsCas12a (UniProt U2UMQ6 1-1307). Briefly: BLI. In general terms: BLI is a label-free optical method that tracks binding on a fibre tip over time.
In series [2] the target is T1, AsCas12a. The series can be described thus: EMSA. Background: A gel shift assay detects complexes by their altered migration in electrophoresis.

In general, Kd refers to the free concentration of one partner at which half of the binding sites on the other are occupied at equilibrium, for simple one-to-one binding. High values mean weaker binding, low ones tighter binding.

B1: AsCas12a GFP ΨDNA w/ biotin (ssDNA)
DNA: AGCACCCAGTCCGCCCTGAGTAGATGTGAATCATCTTTAAT
B1 had a Kd in series [1] of 24.5 nM.

B2: AsCas12a ΨDNA + RNA target (EMSA, FAM ΨDNA) (DNA:RNA)
DNA: B1 DNA
RNA: CUCAGGGCGGACUGGGUGCU
As for B2, the binding result in series [2] is given as “binds”.

B3: AsCas12a ΨDNA + RNA target (EMSA) (DNA:RNA)
DNA: B1 DNA
RNA: CUCAGGGCGGACUGGGUGCU
As for B3, the binding result in series [2] was “binds”.
